Consider three substances from US20250051417A1.

In assay [1] the target is biotinylated Monomer MHC (HLA-A* 02:01 SLC45A2 (Biolegend, Custom Product, … (SEQ ID NO: 2)) (human)). In words: flow cytometry of stained beads, calibrated; divided by the bead surface area. Background: Flow cytometry measures light scatter and fluorescence of single cells or particles in a stream.
The target is the same in assay [2]. In words: flow cytometry of stained beads, calibrated; divided by the nominal bead surface area.
For assay [3], the target named is costimulation antibodies on the antigen presenting beads (biotinylated anti-CD28 and biotinylated anti-CD2). In words: flow cytometry of stained beads, calibrated; divided by the bead surface area.
For assay [4] the target is unchanged. In words: flow cytometry of stained beads, calibrated; divided by the nominal bead surface area.
The target is the same in assay [5]. In words: flow cytometry of stained beads, APC intensity calibrated with Quantum Simply Cellular beads; assumes 1 detection antibody per costimulation antibody.
Assay [6] has as its target Biotinylated peptide-Human Leukocyte Antigen complexes (pMHC). The experiment in a line: flow cytometry of stained beads, APC MFI calibrated with Quantum Simply Cellular beads; silica bead.
Assay [7] has the same target. The experiment in a line: flow cytometry of stained beads, APC MFI calibrated with Quantum Simply Cellular beads; polymeric bead.

As for “APC-conjugated anti-HLA-A (Biolegend, Catalog Number 343308) (antibody)”, the pMHC Density (molecules/sq micron) in assay [1] was 14800; in assay [2], 19800.
As for “APC-conjugated monoclonal anti-Mouse-IgG1 (Biolegend, Catalog Number 406610) (antibody)”, the Costimulation Antibody Density (molecules/sq micron) is 15600 in assay [3] and 17300 in assay [4]. Besides, the Costimulation antibodies/bead (anti-Mouse IgG1 antibodies bound per bead) (antibodies/bead) came out at 427000 in assay [5] (M-280 convoluted polymer beads) and 845000 in assay [5] (substantially spherical silica beads).
As for “anti-HLA-A conjugated to APC (Clone BB7.2, Biolegend) (antibody)”, in assay [6], the Ligands/Bead (detection antibodies bound per bead) stood at 604000 Ligands/Bead and the Ligands/sq um (Ligands/sq um) came to 12000. Further, in assay [7], the Ligands/Bead (detection antibodies bound per bead) came out at 487000 Ligands/Bead and the Ligands/sq um (Ligands/sq um) was 19800.
